Source: the supplement of paper PMC9170038

System: MS2 coat protein
Assay: apparent KD of MS2 coat protein; designed switch direction (-1 OFF switch, 1 ON switch): 1; higher = weaker reporter binding
In short: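 An oligonucleotide input, 200 uM small-molecule ligand, or no input was present during titration of SNAP-549-labelled MS2 coat protein, which was doubled from 0.7 or 1.5 nM to 3 µM. Designed RNA switches had been transcribed on Illumina chips by stalled E. coli RNA polymerase. Apparent KD per design is the median over clusters of curves fitted to normalised cluster fluorescence.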

[1] = input ligand: microRNA oligo, concentration not stated
[2] = Eterna round: R95, input ligand: microRNA oligo, concentration not stated
[3] = Eterna round: R95, input ligand: FMN 200 uM
[4] = Eterna round: R95, input ligand: none

Sequence | apparent KD of MS2 coat protein (input ligand: FMN 200 uM) | apparent KD of MS2 coat protein [1] | apparent KD of MS2 coat protein (input ligand: none) | apparent KD of MS2 coat protein [2] | apparent KD of MS2 coat protein [3] | apparent KD of MS2 coat protein [4]
GGUGGGUUACUACCCACACAUGAGGAUCACCCAUGUAUUGGGAAGGAUAUGGUACCUAUUUGGUACCAGAAGGUCCUGAUGGUG [SS-NG3-LRO15] (Eterna round: R96, puzzle: Same State NG 3) | 1280 nM | 312 nM | 1610 nM | – | – | –
CGGCGCUGUCGAGAGGAUAUGCGGUGACGGACAUGAGGAUCACCCAUGUUAGCGAUAGCGUUACGGUAGAAGGCUCUACAGUCGC [Soteed Omei mod 10] (puzzle: Same State 2) | – | – | – | 49.2 nM | – | –
ACUCUCACAGUAGGAUAUGUAGGAUAUGCCUACAUGAGGAUCACCCAUGUAAACAUGGCAGAAGGAUAGAAGGACUUACAUGGG [pwkr ssNG2 2FMN + 1F5.4] (Eterna round: R96, puzzle: Same State NG 2) | 108 nM | 44.1 nM | 196 nM | – | – | –
GUAAUAAAGGAAGGAUAUGGGUAAACGGGAAUCCCAGAAGGUCCACAUGAGGAUCACCCAUGUGGUCCCGAAACCACGGGACCG [Enbive] (Eterna round: R96, puzzle: Same State NG 1) | 84.2 nM | 60.5 nM | 75 nM | – | – | –
AGCUAAUACGAAGGAUAUACUGACAUGAGGAUCACCCAUGUCUACAUGAUUUAUUGUGAUCACAUGUAGAAGGUCGUACUAACA [SameState NG2 #23] (Eterna round: R96, puzzle: Same State NG 2) | 26.8 nM | 62.3 nM | 79.8 nM | – | – | –
UUAAUGAAGUAAGGAUAUACAUGAGGAAUUCUCGUAGAAGGUACUAUACAUGAGGAUCACCCAUGUGCCGGUCAGAAGACUGGA [Mat - Same State NG 1 - JL mod - D11] (Eterna round: R96, puzzle: Same State NG 1) | 454 nM | 302 nM | 415 nM | – | – | –
AAGAAAGACGCAGGAUAUCAGUGCAAACCGCACUGAGAAGGGUGAGACAUGAGGAUCACCCAUGUAACACGGCAAAACACCGUG [Teinre] (Eterna round: R96, puzzle: Same State NG 1) | 1240 nM | 49.3 nM | 191 nM | – | – | –
GCUCGAAUCACAGCCAACAUGAGGAUCACCCAUGUGUGUUGGUAGGAUAUCGUUUCUAAGGGAAACGAGAAGGGCCGAACGAGC [SameState NG3 #9] (Eterna round: R96, puzzle: Same State NG 3) | 31.5 nM | 39.2 nM | 52.1 nM | – | – | –
UCUUGGUUUUUGCUCGUUUUUUGUGUUGAACAUGAGGAUCACCCAUGUAUUGUACAGUCCGAUUUAAUAAUGGUCCG [JMF 57] (puzzle: Sensor for hsa-mir-208a) | – | – | – | 26 nM | 31.5 nM | 33.8 nM
CGGCGCUGUCGAGAGGAUAUGCGGUGACGGACAUGAGGAUCACCCAUGUUAGCGAUAGCGUUACGGUAGAAGGCUCUACAGUCGC [Soteed Omei mod 10] (Eterna round: R96, puzzle: Same State 2) | 19.1 nM | 125 nM | 217 nM | – | – | –
GCUAGAAAUAAUGCCAACAUGAGGAUCACCCAUGUAUGUUGGCAGGAUAUCGUUUGCUUUGCAAACGAGAAGGGCUAAACUAGC [Mat - Same State NG 3 - JL Mod - D7] (Eterna round: R96, puzzle: Same State NG 3) | 280 nM | 296 nM | 280 nM | – | – | –
AUUAAACAUGAGGAUCACCCAUGUCAACAAAGUCGAGGAUAUGGGCAAAUAUUAUAAUAACCAGAAGGCGAAUAAU [salish99_ss1_r3_082] (puzzle: Same State 1) | – | – | – | 212 nM | 27.4 nM | 149 nM
UUAUCCUUUUUUUACAUGAGGAUCACCCAUGUUUUUCUUACGUAGGAUAUCGUUGUUUUUUUUUACGAGAAGGACGUAGUAUGU [JR_SSND3_Sub062] (Eterna round: R96, puzzle: Same State NG 3) | 35.8 nM | 30.4 nM | 36.5 nM | – | – | –
AGCUAUUACGAAGGAUAUUGUGACAUGAGGAUCACCCAUGUUUACAUGAUUAAUUGUGAUCACGUCGAGAAGGUUGUACUAACA [SameState NG2 #32] (Eterna round: R96, puzzle: Same State NG 2) | 24.3 nM | 27.3 nM | 30.2 nM | – | – | –
CCUAUAGCCACAGGAUAUGAGAACACGUUGAACGUACAUGAGGAUCACCCAUGUCGCCGAUCGACUUAGAAGGGUGGCCCUCGC [Eternabot solution 26] (Eterna round: R96, puzzle: Same State NG 2) | 34.4 nM | 37.9 nM | 29.4 nM | – | – | –
AUAGUUUCCGAAGGAUAUGAUGAGGAUCACCCAUCAGAAGGUUGGCUAUUGGGCUGACAUGAGGAUCACCCAUGUUCUGGAGUU (Eterna round: R96, puzzle: Same State NG 1) | 39.8 nM | 39.5 nM | 64.5 nM | – | – | –
AAUCCUGUCACAGGAUAUCCAAGGUAAACCCUCGGAGAAGGGUGAUAGUCUAACAAACACACACAUGAGGAUCACCCAUGUUAA [Usxeus] (Eterna round: R96, puzzle: Same State NG 1) | 52.4 nM | 40.1 nM | 83.6 nM | – | – | –
UCUUGGUUUUUGCUCGUUUUUUGUGUUGAACAUGAGGAUCACCCAUGUAUUGUACGGUCCGAUUUAGUGGUAGUCCG [JMF 72] (puzzle: Sensor for hsa-mir-208a) | – | – | – | 23.5 nM | 34.7 nM | 36 nM
GAGGGCGAAAGCGACAUGAGGAUCACCCAUGUCCUCGGAGGACAGGAUAUCCGGCAAAAGCCGAAGGAGAAGGGUCGAAAAGAA [AK SSNG3-V2-37] (Eterna round: R96, puzzle: Same State NG 3) | 47.2 nM | 69.7 nM | 136 nM | – | – | –
UUAUCGCUUGGAGGAUAUCCAACUAUACUAAUUGGAGAAGGCCAAGCUACAGAGCUAAGCUUGGAAGUCACUUCGAAUCAACAC [pwkr ssNG1 F9.3] (Eterna round: R96, puzzle: Same State NG 1) | 33.2 nM | 5.18 nM | 48.8 nM | – | – | –
GGAGCCAAGGCAGGAUAUUCAUAUUAAUUACAUGAGGAUCACCCAUGUUAGGCCAGAAGGCCUUGGGAGAAGGGCCAUGGCUCG [Xeonanis - 13 mod19] (Eterna round: R96, puzzle: Same State NG 2) | 22.9 nM | 47.2 nM | 60.6 nM | – | – | –
GGAGGAUGAGCGUAGGAUAUAGGAGGAGUGACAUGAGGAUCACCCAUGUAGUAGGAGGGAAAGGGCUAGAAGGACGAGGAAGAGG [JR_SS2_Sub071] (puzzle: Same State 2) | – | – | – | 51.2 nM | 56.1 nM | 70.2 nM
UGUUGUAUUACAGGAUAUCUAGUAUUUUUAAUUAGAGAAGGGUAUUCACAUGAGGAUCACCCAUGUAUAUACGAGGAAGUUGUG [JMF's solution 48] (Eterna round: R96, puzzle: Same State NG 1) | – | 34 nM | – | – | – | –
